“And” between values parts separate entries of the source, which are not always exact repeats. Identical values can stand only once.
B1: Tissue-type plasminogen activator, P00750 (parent)
chain: MDAMKRGLCCVLLLCGAVFVSPSQEIHARFRRGARSYQVICRDEKTQMIYQQHQSWLRPVLRSNRVEYCWCNSGRAQCHSVPVKSCSEPRCFNGGTCQQALYFSDFVCQCPEGFAGKCCEIDTRATCYEDQGISYRGTWSTAESGAECTNWNSSALAQKPYSGRRPDAIRLGLGNHNYCRNPDRDSKPWCYVFKAGKYSSEFCSTPACSEGNSDCYFGNGSAYRGTHSLTESGASCLPWNSMILIGKVYTAQNPSAQALGLGKHNYCRNPDGDAKPWCHVLKNRRLTWEYCDVPSCSTCGLRQYSQPQFRIKGGLFADIASHPWQAAIFAKHRRSPGERFLCGGILISSCWILSAAHCFQERFPPHHLTVILGRTYRVVPGEEEQKFEVEKYIVHKEFDDDTYDNDIALLQLKSDSSRCAQESSVVRTVCLPPADLQLPDWTECELSGYGKHEALSPFYSERLKEAHVRLYPSSRCTSQHLLNRTVTDNMLCAGDTRSGGPQANLHDACQGDSGGPLVCLNDGRMTLVGIISWGLGCGQKDVPGVYTKVTNYLDWIRDNMRP

Variants of: B1
Settings: Homo sapiens; pH 8; Thermal; DSC; Tris - Oac/100mM NaOAc 50 mM; structure 1PML; whole UniProt chain shown

Variant	change of melting temperature, mutant - wild type (higher = more stable) [°C]	Tm
W288F	-1.7	
W288Y		81.6 °C
W288L	-3.7	71.7 °C and 73.9 °C
W288S	-3.5	73.7 °C and 76.5 °C
